The text below walks through data of patent US20180194850A1 (GENERAL HOSPITAL, published 2018).

One assay has as its target T1, S03933.
T1 sequence (peptide): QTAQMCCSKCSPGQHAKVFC
In words: linear peptide ELISA (absorbance); Affinity +. (In general: In an ELISA, binding on a coated surface is turned into a signal by an enzyme label.)

For assay [1], the target named is T2, EGCRL2….
T2 sequence (peptide, 2 = Cys(Acm)): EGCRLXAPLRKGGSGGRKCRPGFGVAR
The assay can be described thus: CLIPS peptide-array ELISA [Continued].

The target in assay [2] is T3, peptide fragment defined by residues 130-149 of SEQ ID NO: 7 within human TNFR2 (KQEGCRLCAPLRKCRPGFGV) (human).
T3 construct: also called linear peptide containing the KCRPG motif
T3 peptide: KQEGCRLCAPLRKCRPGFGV
The assay can be described thus: comparison of affinity for linear peptides; assay not named in the sentence (linear peptide ELISA, FIG. 13B). Here is the method:
ELISA was also used to determine linear epitopes present on the extracellular surface of TNFR2.
Linear peptides corresponding to various regions within the TNFR2 primary sequence were purchased from GenScript (Piscataway, N.J.), diluted in coating buffer and placed on Immulon 4HBX Flat Bottom Microtiter Plates (Thermo Scientific) at a concentration of 1 μg/well. Primary TNFR2 antagonistic antibodies (0.1 μg/well) were incubated with substrates. Secondary antibodies against rodent IgG were used to detect the primary antibodies. Absorbance was measured using the SPECTRAMAX® 190 Absorbance Plate Reader and analyzed with SoftMax Pro 6.3 (Molecular Devices).

B1: antagonistic TNFR2 antibody TNFRAB1 (antibody, V domains shown)
VH: EVQLQESGGGLVKPGGSLKLSCAASGFTFSSYVMSWVRQTPEKRLEWVATISSGGSYTYYPDSVKGRFTISRDNAKNTLYLQMSSLRSEDTAMYYCARQRVDGYSSYWYFDVWGAGTAVTVSS
VL: DIVLTQSPAIMSASPGEKVTITCSASSSVYYMYWFQQKPGTSPKLWIYSTSNLASGVPVRFSGSGSGTSYSLTISRMEAEDAATYYCQQRRNYPYTFGGGTKLEIKR
notes: Murine monoclonal IgG; For SPR the antibody was biotinylated and captured on streptavidin; also called TNFR2 antagonist 1
With B1, the Reading with S03933 was found to be 0.1. The same molecule showed a Raw luminescence data in assay [1] of 358. Also, in assay [2], the “fold greater affinity than for the peptide of residues 48-67 (…, SEQ ID NO: 18)” value is 40 fold.
